Test results taken from publication PMC3176292, “Mutations in Protein-Binding Hot-Spots on the Hub Protein Smad3 Differentially Affect Its Protein Interactions and Smad3-Regulated Gene Expression” (PLoS ONE, 2011).
Numbering of substitutions follows the chain as printed.

T1: Flag-Smad4, full length (UniProt Q13485 1-552)
T1 construct: Smad4; plasmid pCMV5-Flag-Smad4 (from J. Massagué); also called Smad4 FL; source: HEK-293, transfected, in lysate
T1 sequence (looked up): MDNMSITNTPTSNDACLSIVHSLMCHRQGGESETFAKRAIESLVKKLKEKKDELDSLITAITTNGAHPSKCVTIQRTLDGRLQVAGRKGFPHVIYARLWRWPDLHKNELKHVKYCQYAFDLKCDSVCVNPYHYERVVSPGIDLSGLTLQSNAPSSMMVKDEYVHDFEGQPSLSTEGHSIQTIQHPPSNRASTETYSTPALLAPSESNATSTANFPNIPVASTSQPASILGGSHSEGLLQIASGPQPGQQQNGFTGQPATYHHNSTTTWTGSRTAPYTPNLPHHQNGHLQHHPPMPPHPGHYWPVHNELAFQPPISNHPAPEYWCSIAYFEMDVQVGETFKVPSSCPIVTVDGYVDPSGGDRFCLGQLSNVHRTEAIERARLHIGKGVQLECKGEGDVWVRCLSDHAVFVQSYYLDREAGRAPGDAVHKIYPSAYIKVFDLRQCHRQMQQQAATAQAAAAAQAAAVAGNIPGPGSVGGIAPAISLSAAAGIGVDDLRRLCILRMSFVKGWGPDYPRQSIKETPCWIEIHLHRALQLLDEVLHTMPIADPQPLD

T2: SARA Smad-binding domain (amino acids 665–721) on the 3xFlag-thioredoxin scaffold (UniProt O95405 767-823)
T2 construct: SARA, amino acids 665–721; cloned into the unique RsrII site of pCI-3xFLAG-Trx; also called SARA aa665–721; TrxSARA; source: HEK-293, transfected, in lysate
T2 sequence (looked up): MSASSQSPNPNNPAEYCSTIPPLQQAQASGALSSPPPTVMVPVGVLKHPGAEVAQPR

T3: Ski Smad-binding domain (amino acids 2–56) on the 3xFlag-thioredoxin scaffold (UniProt P12755 2-56)
T3 construct: Ski, amino acids 2–56; cloned into the unique RsrII site of pCI-3xFLAG-Trx; also called Ski aa2–56; TrxSki; source: HEK-293, transfected, in lysate
T3 sequence (looked up): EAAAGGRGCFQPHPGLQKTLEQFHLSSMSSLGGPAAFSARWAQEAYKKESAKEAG

B1: Renilla luciferase-Smad3 D408H (natural protein, UniProt P84022 1-425, looked up)
chain: MSSILPFTPPIVKRLLGWKKGEQNGQEEKWCEKAVKSLVKKLKKTGQLDELEKAITTQNVNTKCITIPRSLDGRLQVSHRKGLPHVIYCRLWRWPDLHSHHELRAMELCEFAFNMKKDEVCVNPYHYQRVETPVLPPVLVPRHTEIPAEFPPLDDYSHSIPENTNFPAGIEPQSNIPETPPPGYLSEDGETSDHQMNHSMDAGSPNLSPNPMSPAHNNLDLQPVTYCEPAFWCSISYYELNQRVGETFHASQPSMTVDGFTDPSNSERFCLGLLSNVNRNAAVELTRRHIGRGVRLYYIGGEVFAECLSDSAIFVQSPNCNQRYGWHPATVCKIPPGCNLKIFNNQEFAALLAQSVNQGFEAVYQLTRMCTIRMSFVKGWGAEYRRQTVTSTPCWIELHLNGPLQWLHKVLTQMGSPSIRCSSVS
notes: Smad3; source: HEK-293, transfected together with constitutively active Alk5, in lysate
B2: Renilla luciferase-Smad3 Y297A (natural protein, UniProt P84022 1-425, looked up)
chain: B1 chain with Y297A, H408D
notes: as for B1
B3: Renilla luciferase-Smad3 R243A (natural protein, UniProt P84022 1-425, looked up)
chain: B1 chain with R243A, H408D
notes: as for B1
B4: Renilla luciferase-Smad3 R268A (natural protein, UniProt P84022 1-425, looked up)
chain: B1 chain with R268A, H408D
notes: as for B1
B5: Renilla luciferase-Smad3 Y384A (natural protein, UniProt P84022 1-425, looked up)
chain: B1 chain with Y384A, H408D
notes: as for B1
B6: Renilla luciferase-Smad3 R292A (natural protein, UniProt P84022 1-425, looked up)
chain: B1 chain with R292A, H408D
notes: as for B1
B7: Renilla luciferase-Smad3 Y238A (natural protein, UniProt P84022 1-425, looked up)
chain: B1 chain with Y238A, H408D
notes: as for B1

target: T1, Flag-Smad4, full length; test: co-IP; LUMIER: Renilla luciferase-Smad3 and Flag-tagged partner co-expressed with constitutively active Alk5 in HEK-293; Flag protein captured from cleared lysate (TNE: 10 mM Tris-HCl pH 7.8, 150 mM NaCl, 1 mM EDTA, 1% Igepal CA-630) on anti-Flag 96-well plates, 2 h at 4 °C; co-precipitated Renilla luciferase activity, TrxGA background subtracted, percent of wild-type Smad3; settings: partners not purified

| percent binding relative to wild-type Smad3 | Binder |
| --- | --- |
| 3% | B1 |
| 181% | B2 |

target: T2, SARA Smad-binding domain (amino acids …); test: as above; settings: partners not purified

| percent binding relative to wild-type Smad3 | Binder |
| --- | --- |
| 125% | B1 |
| 8% | B2 |

target: T4, Smurf2 Smad-binding domain (amino acids 252–330) on the Flag-thioredoxin scaffold (UniProt Q9HAU4 252-330); test: as above; settings: partners not purified
T4 construct: Smurf2, amino acids 252–330; also called Smurf2 aa252–330; TrxSmurf2; source: HEK-293, transfected, in lysate
T4 sequence (Q9HAU4 252-330): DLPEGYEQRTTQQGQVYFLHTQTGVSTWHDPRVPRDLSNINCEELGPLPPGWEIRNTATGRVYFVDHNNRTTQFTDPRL

| percent binding relative to wild-type Smad3 | Binder |
| --- | --- |
| 23% | B1 |
| 119% | B2 |

target: T3, Ski Smad-binding domain (amino acids …); test: as above; settings: partners not purified

| percent binding relative to wild-type Smad3 | Binder |
| --- | --- |
| 3% | B1 |
| 1% | B2 |

target: T2, SARA Smad-binding domain (amino acids …); test: as above; settings: partners not purified; remark: another data set of the same source

| percent binding relative to wild-type Smad3 | Binder |
| --- | --- |
| 72% | B3 |
| 116% | B4 |
| 119% | B5 |
| 78% | B6 |
| 74% | B7 |

target: T4, Smurf2 Smad-binding domain (amino acids …); test: as above; settings: partners not purified; remark: another data set of the same source

| percent binding relative to wild-type Smad3 | Binder |
| --- | --- |
| 19% | B3 |
| 21% | B4 |
| 24% | B5 |
| 31% | B6 |
| 28% | B7 |

target: T3, Ski Smad-binding domain (amino acids …); test: as above; settings: partners not purified; remark: another data set of the same source

| percent binding relative to wild-type Smad3 | Binder |
| --- | --- |
| 3% | B3 |
| 2% | B4 |
| 3% | B5 |
| 4% | B6 |
| 2% | B7 |
